We go through 37 molecules from patent US20230242902A1, “A HIGHLY ERROR-PRONE […] R[…] FOR TARGETED CONTINUOUS EVOLUTION IN VIVO” (The Regents of the University of California, priority 2017, published 2023).

The chains are these.
B1: T706Q: TP-DNAP1 variant (protein)
chain: MDYKDKALNDLRNVYADFDSLPLDFRQILIKDRATLLQKEDVEKKILERQEDAKKYAEYLKQSEIPERISLPNIKRHKGVSISFEETSEDMVLEPRPFIFDGLNIRCFRRETIFSLKNKILNMVKESSSFKNVSRQSVSFMYFKIFNKGKVIASTKSVNIYEDKIDERLEDLCNNFDDVLKKIIDVTYGYESLFVSETYSYVIFYAKSIYFPQPRCVNNWGNNIPNILTFDSFKLFTANKNNVSCIKQCSRFLWQKDFNTLEEMIEYKNGNICIVTPQLHINDVRDIKSFNDIRLYSESPIKTFSVIDNTITYLFYFKEHLGVIFNITKSRHDRRVTKFSPLSKFSDVKNITVCFDIESYFDPEKESNQVNIPFICCASIIYNKVIGNIVDFEGRDCVAQMIEYVVDICGELNISSVELIAHNGGGYDFHYILSSMYNPAAIKNILIRNNSFISFNFAHDGVKFSVKDSYSFLLCSLANASKAFLNEETFKKTDFPHHDLKTADDLYKVYKEWSSVNTEINHVVEKEKLLITSEHIVNFTKNDKSKTLIEWSKDYCRNDVLVLSKVWLEFKNAVEDIFNCELVDQTMTLAGLSYKLFQANMPFDVELRHPNKEDYFNMREALIGGRCISVNGIYKDVLCLDVKSLYPASMAFYDQPYGSFKRVSSRPKDELGIYYVRVTPNRNNKSNFFPIRSHNKITYNNFEESQYIAWYTNVDIDIGLSEGHNIEYIPFDSYGNIGYSWSKKGKIFEKYIKDVLYKLKIKYEKQNNKVKRNVIKIIMNSLWGKFAQKWVNFEYFIKSEDDIDFESEEAYKIWDTDFMLIKKIKESTYSSKPIQNGVFTLSWARYHMKSIWDAGAKEGAECIYSDTDSIFVHKEHFKKNAKFMLNGLKVPIIGSEVGQLELECEFDKLLCAGKKQYMGFYTYFQDGKPCIKEKKRFKGIPSNYIIPELYAHLLSGADKEAKIQFLKFRREWGSVKGYIENKTVKAT
B2: K959A: TP-DNAP1 variant (protein)
chain: B1 chain with Q706T, K959A
B3: I301L: TP-DNAP1 variant (protein)
chain: B1 chain with I301L, Q706T
B4: I729V: TP-DNAP1 variant (protein)
chain: B1 chain with Q706T, I729V
B5: I708V: TP-DNAP1 variant (protein)
chain: B1 chain with Q706T, I708V
B6: E298F: TP-DNAP1 variant (protein)
chain: B1 chain with E298F, Q706T
B7: A709N: TP-DNAP1 variant (protein)
chain: B1 chain with Q706T, A709N
B8: S733R: TP-DNAP1 variant (protein)
chain: B1 chain with Q706T, S733R
B9: I301K: TP-DNAP1 variant (protein)
chain: B1 chain with I301K, Q706T
B10: E298P: TP-DNAP1 variant (protein)
chain: B1 chain with E298P, Q706T
B11: E298S: TP-DNAP1 variant (protein)
chain: B1 chain with E298S, Q706T
B12: S733Q: TP-DNAP1 variant (protein)
chain: B1 chain with Q706T, S733Q
B13: I729W: TP-DNAP1 variant (protein)
chain: B1 chain with Q706T, I729W
B14: I708A: TP-DNAP1 variant (protein)
chain: B1 chain with Q706T, I708A
B15: I824E: TP-DNAP1 variant (protein)
chain: B1 chain with Q706T, I824E
B16: I708E: TP-DNAP1 variant (protein)
chain: B1 chain with Q706T, I708E
B17: I708T: TP-DNAP1 variant (protein)
chain: B1 chain with Q706T, I708T
B18: K959M: TP-DNAP1 variant (protein)
chain: B1 chain with Q706T, K959M
B19: E298Y: TP-DNAP1 variant (protein)
chain: B1 chain with E298Y, Q706T
B20: T706P: TP-DNAP1 variant (protein)
chain: B1 chain with Q706P
B21: I729F: TP-DNAP1 variant (protein)
chain: B1 chain with Q706T, I729F
B22: E298I: TP-DNAP1 variant (protein)
chain: B1 chain with E298I, Q706T
B23: I301E: TP-DNAP1 variant (protein)
chain: B1 chain with I301E, Q706T
B24: K962Q: TP-DNAP1 variant (protein)
chain: B1 chain with Q706T, K962Q
B25: I708L: TP-DNAP1 variant (protein)
chain: B1 chain with Q706T, I708L
B26: S733E: TP-DNAP1 variant (protein)
chain: B1 chain with Q706T, S733E
B27: I301A: TP-DNAP1 variant (protein)
chain: B1 chain with I301A, Q706T
B28: I301C: TP-DNAP1 variant (protein)
chain: B1 chain with I301C, Q706T
B29: T706W: TP-DNAP1 variant (protein)
chain: B1 chain with Q706W
B30: Y829F: TP-DNAP1 variant (protein)
chain: B1 chain with Q706T, Y829F
B31: S831T: TP-DNAP1 variant (protein)
chain: B1 chain with Q706T, S831T
B32: I301M: TP-DNAP1 variant (protein)
chain: B1 chain with I301M, Q706T
B33: T706G: TP-DNAP1 variant (protein)
chain: B1 chain with Q706G
B34: I708M: TP-DNAP1 variant (protein)
chain: B1 chain with Q706T, I708M
B35: Y829I: TP-DNAP1 variant (protein)
chain: B1 chain with Q706T, Y829I
B36: S733N: TP-DNAP1 variant (protein)
chain: B1 chain with Q706T, S733N
B37: E298V: TP-DNAP1 variant (protein)
chain: B1 chain with E298V, Q706T

Substitutions are numbered along the chain they refer to. Names may count otherwise.

In the experiment the test system is p1. Nature of the experiment: p1 copy number by p1-encoded mKate2 fluorescence. Type of experiment: cell-based, S. cerevisiae. To be noted: OR-Y24, measured in triplicate. A digest of the protocol:
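p1 copy number came from mKate2 fluorescence of saturated OR-Y24 cultures (triplicates, regrown from 1:10,000), read by flow cytometry and converted through a linear curve calibrated by qPCR (LEU2 against genomic LEU3). For small-scale tests, OD600-normalized plate-reader fluorescence (588/633 nm) was scaled to a w.t. TP-DNAP1 control.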
Take B1: the “Mean fold-increase over w.t. (p1 copy number)” value (shortened to “Mean fold-increase”) amounted to 2.92 fold. For B2 the value was 1.55 fold; for B3, 2.94 fold. The same measure for B4: 1.87 fold.

On to B5, for which the “Mean fold-increase” value stood at 2.01 fold.

For B6, the “Mean fold-increase” value worked out at 1.74 fold. The same measure for B7: 2.01 fold. The same measure for B8: 1.98 fold; for B9: 2.71 fold; for B10: 2.57 fold. For B11 the value was 2.43 fold; for B12, 1.86 fold.

Regarding B13, the “Mean fold-increase” value turned out to be 1.97 fold. For B14 the value was 2.55 fold; for B15, 2.12 fold.

Take B16: the “Mean fold-increase” value was 2.41 fold. For B17 the value was 2.41 fold.

With B18, the “Mean fold-increase” value is on record as 2.02 fold. With B19, the “Mean fold-increase” value worked out at 2.17 fold. For B20 the value was 1.73 fold; for B21, 1.7 fold. Turning to B22, the “Mean fold-increase” value is listed as 2.34 fold. For B23 the value was 2.57 fold; for B24, 1.56 fold; for B25, 2.16 fold. For B26 the value was 2.06 fold. For B27 the value was 2.41 fold.

As to B28, the “Mean fold-increase” value came to 2.46 fold. As for B29, the “Mean fold-increase” value worked out at 1.73 fold. For B30 the value was 2.46 fold; for B31, 1.71 fold; for B32, 2.76 fold. The same measure for B33: 1.72 fold; for B34: 2.32 fold.

Regarding B35, the “Mean fold-increase” value worked out at 1.86 fold. The same measure for B36: 1.86 fold; for B37: 2.64 fold.
